From EP1192182B1, “PITUITARY ADENYLATE CYCLASE ACTIVATING PEPTIDE (PACAP) RECEPTOR 3 (R3) AGONISTS AND THEIR PHARMACOLOGICAL METHODS OF USE” (priority 1999, dated 2001)
No end group written: not given here.

T1: PACAP-R3 (human, UniProt P41587 24-438)
T1 sequence (looked up): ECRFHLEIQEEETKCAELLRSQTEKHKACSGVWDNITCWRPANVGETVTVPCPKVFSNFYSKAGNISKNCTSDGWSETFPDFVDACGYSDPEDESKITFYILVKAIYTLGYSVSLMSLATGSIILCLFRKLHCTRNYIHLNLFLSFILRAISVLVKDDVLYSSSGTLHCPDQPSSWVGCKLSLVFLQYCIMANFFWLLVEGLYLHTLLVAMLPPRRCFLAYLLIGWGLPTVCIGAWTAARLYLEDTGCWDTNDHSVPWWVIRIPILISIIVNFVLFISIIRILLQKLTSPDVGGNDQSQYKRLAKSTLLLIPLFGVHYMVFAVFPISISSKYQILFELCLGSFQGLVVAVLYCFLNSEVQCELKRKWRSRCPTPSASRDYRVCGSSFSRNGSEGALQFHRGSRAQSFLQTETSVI


target: T1, PACAP-R3; assay: cell-based or functional assay

Compared with HSDAVFTDNYTRLRKQMAAKKYLNSIKNCR [R3P134], HSDAVFTDNYTRLRKQMARKKYLNSIKNKR [R3P109] is 25-fold higher in “R3 EC50” value: 0.4 nM for the first, 10 nM for the second.

First: HSDAVFTDNYTRLRKQMAAKKYLNSIVNKR [R3P130]
Second: HSDAVFTDNYTRLRKQMAAKKYLNSIFNKR [R3P119]
The “R3 EC50” value of the first is 2-fold higher: 1 nM for the first, 0.5 nM for the second.

HSDAVFTDNYTRLRKQMAAKKYLNSIHNKR [R3P121] and HSDAVFTDNYTRLRKQMAFKKYLNSIKNKR [R3P99] are the same in “R3 EC50” value: 1 nM for the first, 1 nM for the second.

Going from HSDAVFTDNYTRLRKQMASKKYLNSIKNKR [R3P110] to HSDAVFTDNYTRLRKQMAQKKYLNSIKNKR [R3P108], the “R3 EC50” value rises from 0.5 nM to 300 nM (600-fold).

HSDAVFTDNYTRLRKQMAAKKYLNSIWNKR [R3P131] and HSDAVFTDNYTRLRKQMAAKKYLNSIYNKR [R3P132] are within 1.5-fold of each other in “R3 EC50” value: 0.3 nM for the first, 0.2 nM for the second.

HSDAVFTDNYTRLRKQMALKKYLNSIKNKR [R3P104] and HSDAVFTDNYTRLRKQMAGKKYLNSIKNKR [R3P100] are within 1.5-fold of each other in “R3 EC50” value: 0.2 nM for the first, 0.3 nM for the second.

Compared with HSDAVFTDNYTRLRKQVAAKKYLQSILNKR [R3P92], HSDAVFTDNYTRLRKQMACKKYLNSIKNKR [R3P94] is 4.5-fold higher in “R3 EC50” value: 0.02 nM for the first, 0.09 nM for the second.

HSDAVFTDNYTRLRKQMATKKYLNSIKNKR [R3P111] and HSDAVFTDNYTRLRKQMAAKKYLNSIKNPR [R3P144] are the same in “R3 EC50” value: 3 nM for the first, 3 nM for the second.

Going from HSDAVFTDNYTRLRKQMAYKKYLNSIKNKR [R3P114] to HSDAVFTDNYTRLRKQMAIKKYLNSIKNKR [R3P102], the “R3 EC50” value rises from 2 nM to 60 nM (30-fold).

Compared with HSDAVFTDNYTRLRKQMAAKKYLNSIINKR [R3P122], HSDAVFTDNYTRLRKQMAAKKYLNSIQNKR [R3P126] is 5-fold higher in “R3 EC50” value: 0.2 nM for the first, 1 nM for the second.

HSDAVFTDNYTRLRKQMAWKKYLNSIKNKR [R3P113] and HSDAVFTDNYTRLRKQMAAKKYLNSIKNNR [R3P143] are within 1.5-fold of each other in “R3 EC50” value: 0.3 nM for the first, 0.2 nM for the second.

HSDAVFTDNYTRLRKQMAAKKYLNSISNKR [R3P128] and HSDAVFTDNYTRLRKQMAAKKYLNSIKNIR [R3P140] are the same in “R3 EC50” value: 0.3 nM for the first, 0.3 nM for the second.

HSDAVFTDNYTRLRKQMAAKKYLNSIKNFR [R3P137] and HSDAVFTDNYTRLRKQMAAKKYLNSIGNKR [R3P120] are within 1.5-fold of each other in “R3 EC50” value: 0.3 nM for the first, 0.2 nM for the second.

First: HSDAVFTDNYTRLRKQMAAKKYLNSICNKR [R3P116]
Second: HSDAVFTDNYTRLRKQMAAKKYLNSIKNHR [R3P139]
The “R3 EC50” value of the first is 2.5-fold higher: 1 nM for the first, 0.4 nM for the second.

Going from HSDAVFTDNYTRLRKQMAAKKYLNSIPNKR [R3P125] to HSDAVFTDNYTRLRKQMAAKKYLNSIANKR [R3P115], the “R3 EC50” value rises from 2 nM to 6 nM (3-fold).

First: HSDAVFTDNYTRLRKQVAAKKYLQSILNK [R3P93]
Second: HSDAVFTDNYTRLRKQMAMKKYLNSIKNKR [R3P105]
The “R3 EC50” value of the first is 2.1-fold lower: 0.14 nM for the first, 0.3 nM for the second.

Compared with HSDAVFTDNYTRLRKQMAAKKYLNSINNKR [R3P124], HSDAVFTDNYTRLRKQMAPKKYLNSIKNKR [R3P107] is 1000-fold higher in “R3 EC50” value: 0.2 nM for the first, 200 nM for the second.

Compared with HSDAVFTDNYTRLRKQMAKKKYLNSIKNKR [R3P103], HSDAVFTDNYTRLRKQMAHKKYLNSIKNKR [R3P101] is 20-fold higher in “R3 EC50” value: 0.05 nM for the first, 1 nM for the second.

With HSDAVFTDNYTRLRKQMAAKKYLNSIRNKR [R3P127] the “R3 EC50” value was 0.5 nM.

HSDAVFTDNYTRLRKQMAAKKYLNSIKNCR [R3P134] and HSDAVFTDNYTRLRKQMARKKYLNSIKNKR [R3P109] are the same in “R3 Selectivity” value: 100 ratio for the first, 100 ratio for the second.

Going from HSDAVFTDNYTRLRKQMAAKKYLNSITNKR [R3P129] to HSDAVFTDNYTRLRKQMAAKKYLNSIVNKR [R3P130], the “R3 Selectivity” value falls from 50 ratio to 40 ratio.

HSDAVFTDNYTRLRKQMAAKKYLNSIFNKR [R3P119] and HSDAVFTDNYTRLRKQMAAKKYLNSIENKR [R3P118] are the same in “R3 Selectivity” value: 30 ratio for the first, 30 ratio for the second.

First: HSDAVFTDNYTRLRKQMAAKKYLNSIHNKR [R3P121]
Second: HSDAVFTDNYTRLRKQMAFKKYLNSIKNKR [R3P99]
The “R3 Selectivity” value of the first is higher: 50 ratio for the first, 40 ratio for the second.

Compared with HSDAVFTDNYTRLRKQMAAKKYLNSIKNLR [R3P141], HSDAVFTDNYTRLRKQMASKKYLNSIKNKR [R3P110] is higher in “R3 Selectivity” value: 100 ratio for the first, 200 ratio for the second.

Compared with HSDAVFTDNYTRLRKQMAQKKYLNSIKNKR [R3P108], HSDAVFTDNYTRLRKQMAAKKYLNSIWNKR [R3P131] is higher in “R3 Selectivity” value: 3 ratio for the first, 70 ratio for the second.

Going from HSDAVFTDNYTRLRKQLAAKKYLNDIKKGGT [R3P12] to HSDAVFTDNYTRLRKQMAVKKYLNDLKKGGT [R3P14], the “R3 Selectivity” value falls from over 200 ratio to 3 ratio.

Compared with HSDAVFTDNYTRLRKQMALKKYLNSIKNKR [R3P104], HSDAVFTDNYTRLRKQMAGKKYLNSIKNKR [R3P100] is lower in “R3 Selectivity” value: 500 ratio for the first, 30 ratio for the second.

HSDAVFTDNYTRLRKQVAAKKYLQSILNKR [R3P92] and HSDAVFTDNYTRLRKQMACKKYLNSIKNKR [R3P94] are the same in “R3 Selectivity” value: 100 ratio for the first, 100 ratio for the second.

Compared with HSDAVFTDNYTRLRKQMAAKKYLNSIKNPR [R3P144], HSDAVFTDNYTRLRKQMAYKKYLNSIKNKR [R3P114] is lower in “R3 Selectivity” value: 100 ratio for the first, 10 ratio for the second.

Going from HSDAVFTDNYTRLRKQMAAKKYLNSIKNER [R3P136] to HSDAVFTENYTKLRKQLAAKKYLNDLLNGGT [R3P10], the “R3 Selectivity” value falls from 70 ratio to 0.3 ratio.

Compared with HSDAVFTDNYTKLRKQLAAKKYLNDILNGGT [R3P11], HSDAVFTDNYTRLRKQMAIKKYLNSIKNKR [R3P102] is higher in “R3 Selectivity” value: 3 ratio for the first, 5 ratio for the second.

Compared with HSDAVFTDNYTRLRKQLAAKKYLNDIKK-NH2 [R3P13], HSDAVFTDNYTRLRKQMAAKKYLNSIQNKR [R3P126] is higher in “R3 Selectivity” value: 33 ratio for the first, 200 ratio for the second.

First: HSDAVFTDNYTRLRKQMAWKKYLNSIKNKR [R3P113]
Second: HSDAVFTDNYTRLRKQMAAKKYLNSIKNNR [R3P143]
The “R3 Selectivity” value of the first is lower: 10 ratio for the first, 30 ratio for the second.

First: HSDAVFTDNYTRLRKQMAAKKYLNSISNKR [R3P128]
Second: HSDAVFTDNYTRLRKQMAAKKYLNSIKNIR [R3P140]
The “R3 Selectivity” value of the first is higher: 200 ratio for the first, 50 ratio for the second.

Compared with HSDAVFTDNYTRLRKQMAAKKYLNSIKNFR [R3P137], HSDAVFTDNYTRLRKQMAAKKYLNSIGNKR [R3P120] is lower in “R3 Selectivity” value: 100 ratio for the first, 50 ratio for the second.

Compared with HSDAVFTDNYTRLRKQMAAKKYLNSICNKR [R3P116], HSDAVFTDNYTRLRKQMAAKKYLNSIKNHR [R3P139] is higher in “R3 Selectivity” value: 20 ratio for the first, 50 ratio for the second.

Going from HSDAVFTDNYTRLRKQMAAKKYLNSIPNKR [R3P125] to HSDAVFTDNYTRLRKQMAAKKYLNSIANKR [R3P115], the “R3 Selectivity” value rises from 30 ratio to 50 ratio.

First: HSDAVFTDNYTRLRKQVAAKKYLQSILNK [R3P93]
Second: HSDAVFTDNYTRLRKQMAAKKYLNSINNKR [R3P124]
The “R3 Selectivity” value of the first is higher: 40 ratio for the first, 15 ratio for the second.

Compared with HSDAVFTDNYTRLRKQMAAKKYLNSIKNMR [R3P142], HSDAVFTDNYTRLRKQMAPKKYLNSIKNKR [R3P107] is lower in “R3 Selectivity” value: 30 ratio for the first, 5 ratio for the second.

Going from HSDAVFTDNYTRLRKQMAKKKYLNSIKNKR [R3P103] to HSDAVFTDNYTRLRKQMAHKKYLNSIKNKR [R3P101], the “R3 Selectivity” value rises from 8 ratio to 400 ratio.

In the case of HSDAVFTDNYTRLRKQMAAKKYLNSIRNKR [R3P127], the “R3 Selectivity” value is reported as 600 ratio.
